The values that follow come from PMC12500691.

Values joined by “and” are separate entries in the source; they are usually repeats but may differ in a detail not shown here. Identical values can stand only once.

Test [1] has as its target SARS-CoV-2 SpikeHis (SARS-CoV-2 (Wuhan variant)) (UniProt P0DTC2). Kind of test: SPR.
Test [2] concerns the target SARS-CoV-2 Spike_(Strep) (SARS-CoV-2 (Wuhan variant)) (UniProt P0DTC2). Kind of test: SPR.
The target in test [3] is SARS-CoV-2 extended S1 subunit (SARS-CoV-2 (Wuhan variant)) (UniProt P0DTC2). Briefly: SPR.
In test [4] the target is SARS-CoV-2 Spike_(Strep) (SARS-CoV-2 (Wuhan variant)) (UniProt P0DTC2). Briefly: negative stain electron microscopy.

Sequence of human angiotensin converting enzyme 2 (Q9BYF1 20-611): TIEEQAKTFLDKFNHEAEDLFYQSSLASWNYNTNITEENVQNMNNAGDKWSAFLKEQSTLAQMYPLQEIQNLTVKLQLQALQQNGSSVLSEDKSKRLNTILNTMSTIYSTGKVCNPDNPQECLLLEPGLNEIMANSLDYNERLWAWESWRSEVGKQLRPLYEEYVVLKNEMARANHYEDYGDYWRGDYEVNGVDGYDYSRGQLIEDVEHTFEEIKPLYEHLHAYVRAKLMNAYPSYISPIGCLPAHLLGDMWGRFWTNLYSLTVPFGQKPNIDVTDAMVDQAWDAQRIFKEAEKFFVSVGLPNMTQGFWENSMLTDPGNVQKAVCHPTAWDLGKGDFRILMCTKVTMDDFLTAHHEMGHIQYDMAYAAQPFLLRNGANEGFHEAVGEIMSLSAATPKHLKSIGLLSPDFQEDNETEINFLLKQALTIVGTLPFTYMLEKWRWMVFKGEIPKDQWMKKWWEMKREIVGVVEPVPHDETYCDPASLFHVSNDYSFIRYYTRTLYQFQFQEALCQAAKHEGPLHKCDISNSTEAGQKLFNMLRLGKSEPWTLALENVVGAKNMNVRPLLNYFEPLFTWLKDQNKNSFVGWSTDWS

The substance LL-37 (peptide) gave a dissociation constant Kd in test [1] of 410 nM. Also, in test [2], the IC50 came out at 670 nM, the Kd is 410 nM and the stoichiometry N is 6. In test [3], this substance came in with an IC50 of 160 nM and a Kd of 200 nM.
For the substance gold-labeled LL-37 (peptide), in test [4], the stoichiometry N was 4 and 7.
Substance “human angiotensin converting enzyme 2 (from UniProt Q9BYF1-1 20-611) (receptor)” displayed a Kd in test [3] of 610 nM.
